The supplement of paper PMC10724198
± gives the standard deviation of the averaged measurements.

System: Saccharomyces cerevisiae
Test: protein stability index of tFT-peptide fusion (C-terminal peptide) (PSI (0-1 scale)); higher = more stable (slower turnover)
Conditions: temperature: 30 C
Experimental: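 MPS profiling in S. cerevisiae of the yeast C-terminome library: the last 12 aa of each annotated ORF are fused to the C-terminus of a sfGFP-mCherry timer, after a GGGS linker. Cells are FACS-sorted into 8 mCherry/sfGFP bins and deep-sequenced. PSI runs from 0 (unstable) to 1 (stable); wild type and das1Δ backgrounds, two technical replicates each.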

[1] = genetic background: das1 deletion

Sequence	protein stability index [1]	protein stability index (genetic background: wild type)
EERKDALANNIK [CCS1 C-terminal 12 aa]	0.6794 ± 0.0017	0.688 ± 0.07
EEVETVSEHVKV [DPA10 C-terminal 12 aa]	0.6781 ± 0.00078	0.691 ± 0.038
EFLTNSILTRRK [COQ1 C-terminal 12 aa]	0.721 ± 0.048	0.651 ± 0.065
EFVVQSLRSRNQ [YFR018C C-terminal 12 aa]	0.7231 ± 0.0049	0.703 ± 0.035
EGEHEQVLENFQ [GUT1 C-terminal 12 aa]	0.702 ± 0.014	0.676 ± 0.032
EGFIAKVMCCLD [RFC5 C-terminal 12 aa]	0.606 ± 0.0065	0.599 ± 0.021
EGWNSDNVYKLS [CYC2 C-terminal 12 aa]	0.7213 ± 0.0026	0.598 ± 0.0034
EHDKSPLSRKRQ [SFI1 C-terminal 12 aa]	0.708 ± 0.015	0.703 ± 0.035
EHRMLKLILNSG [NTO1 C-terminal 12 aa]	0.694 ± 0.017	0.644 ± 0.013
EIKEMLVTLINK [SRL2 C-terminal 12 aa]	0.6725 ± 0.002	0.652 ± 0.028
EIVGRYVVETSK [ADH5 C-terminal 12 aa]	0.678 ± 0.028	0.6821 ± 0.0047
EKCSYYFLSRAH [YNL017C C-terminal 12 aa]	0.6866 ± 0.0041	0.66 ± 0.023
EKGIFAGDINSD [COX12 C-terminal 12 aa]	0.7005 ± 0.0047	0.726 ± 0.029
EKKDTEGDVDMD [SSE1 C-terminal 12 aa]	0.678 ± 0.0095	0.666 ± 0.011
EKKRVLNAVCGL [YLR412C-A C-terminal 12 aa]	0.69 ± 0.016	0.658 ± 0.021
EKPPKEEPESDI [TIM54 C-terminal 12 aa]	0.711 ± 0.032	0.666 ± 0.0042
EKVRCIKKYQSW [APD1 C-terminal 12 aa]	0.726 ± 0.0064	0.727 ± 0.034
ELPNGKVIYSRK [ERJ5 C-terminal 12 aa]	0.687 ± 0.067	0.745 ± 0.025
ELTSSDDCKDFI [YDR124W C-terminal 12 aa]	0.7025 ± 0.0028	0.652 ± 0.034
EMLGDKVNKKGI [SOK1 C-terminal 12 aa]	0.727 ± 0.0085	0.67 ± 0.012
EMNNIIAASRRH [RPL36A C-terminal 12 aa]	0.701 ± 0.0077	0.713 ± 0.048

Sequence	protein stability index [1]	protein stability index (genetic background: wild type)
ENAEKQRTLKKN [RIA1 C-terminal 12 aa]	0.6927 ± 0.00075	0.71 ± 0.045
ENAHMQSAESCN [YLR236C C-terminal 12 aa]	0.682 ± 0.011	0.717 ± 0.074
ENASQLPHPSQK [ZIM17 C-terminal 12 aa]	0.698 ± 0.024	0.691 ± 0.021
ENDPWKVVRLAP [PDX3 C-terminal 12 aa]	0.711 ± 0.019	0.715 ± 0.011
ENLVKQEAINGS [YAF9 C-terminal 12 aa]	0.6823 ± 0.0044	0.6834 ± 0.0042
ENVDSPRKSNQL [SLM2 C-terminal 12 aa]	0.69 ± 0.018	0.678 ± 0.014
EPFGPKMSTVQV [YHB1 C-terminal 12 aa]	0.6732 ± 0.0032	0.663 ± 0.0085
EQLEEEFVRQEH [OSW7 C-terminal 12 aa]	0.7319 ± 0.00083	0.7301 ± 0.0026
EQLEQDDGRKGG [LSM12 C-terminal 12 aa]	0.682 ± 0.024	0.669 ± 0.023
EQNAALGQGLGR [TIM9 C-terminal 12 aa]	0.70792 ± 0.00034	0.692 ± 0.0086
EQNLEALAKSFF [BEM4 C-terminal 12 aa]	0.734 ± 0.023	0.697 ± 0.029
EQSEQPEQHQDK [RPN10 C-terminal 12 aa]	0.697 ± 0.018	0.666 ± 0.01
ERKPLDFLRTAK [MRPL39 C-terminal 12 aa]	0.6743 ± 0.0021	0.659 ± 0.0088
ESAKQRRDKQKN [ATG38 C-terminal 12 aa]	0.7096 ± 0.003	0.686 ± 0.02
ESLQKNIKIETK [MUM3 C-terminal 12 aa]	0.6981 ± 0.005	0.671 ± 0.051
ESVSYLFTHAPV [PRS2 C-terminal 12 aa]	0.734 ± 0.0093	0.711 ± 0.023
ESYRDDSIEAED [NCR1 C-terminal 12 aa]	0.6933 ± 0.001	0.7157 ± 0.0012
ETIAEEMDSVHT [YAL064W-B C-terminal 12 aa]	0.682 ± 0.012	0.662 ± 0.018
ETNFWTAALEYE [THI20 C-terminal 12 aa]	0.723 ± 0.011	0.759 ± 0.034
ETVGYEAYLENK [ADE2 C-terminal 12 aa]	0.685 ± 0.014	0.661 ± 0.013
EVDIDSLLAKLN [RLP7 C-terminal 12 aa]	0.7114 ± 0.0065	0.407 ± 0.023

Sequence	protein stability index [1]	protein stability index (genetic background: wild type)
EVLEVAEKFKEE [DOT5 C-terminal 12 aa]	0.696 ± 0.011	0.683 ± 0.018
EYHQEFLHKHVR [CWC15 C-terminal 12 aa]	0.726 ± 0.035	0.662 ± 0.015
EYPWEKPKTLKF [SAM1 C-terminal 12 aa]	0.7167 ± 0.00082	0.6917 ± 0.0068
FADTRPFDEIYR [ATP23 C-terminal 12 aa]	0.73 ± 0.00073	0.727 ± 0.063
FAFVVVKQEFIH [BYE1 C-terminal 12 aa]	0.521 ± 0.015	0.519 ± 0.0072
FASGKPIKKVKN [DYS1 C-terminal 12 aa]	0.698 ± 0.0083	0.706 ± 0.016
FCKEKVYSKLLV [YNL103W-A C-terminal 12 aa]	0.648 ± 0.015	0.559 ± 0.0084
FDTLIVHHFSSE [KHA1 C-terminal 12 aa]	0.733 ± 0.01	0.682 ± 0.021
FEVMKFVNGLKV [RFX1 C-terminal 12 aa]	0.5484 ± 0.0045	0.5872 ± 0.0047
FEWEDDESDEIA [ATG7 C-terminal 12 aa]	0.7397 ± 0.004	0.706 ± 0.035
FFRLGWSTWLHY [YOR029W C-terminal 12 aa]	0.502 ± 0.01	0.351 ± 0.0046
FFRQWWDIIQSK [YMR316C-A C-terminal 12 aa]	0.7 ± 0.025	0.671 ± 0.012
FGDNSKHKTDKI [BOI2 C-terminal 12 aa]	0.712 ± 0.042	0.685 ± 0.019
FIENVLKKRNMK [LIP5 C-terminal 12 aa]	0.7195 ± 0.0041	0.7 ± 0.041
FIFYSILPTNVI [YPR123C C-terminal 12 aa]	0.594 ± 0.013	0.645 ± 0.029
FIKKWAHYYKKF [SBE22 C-terminal 12 aa]	0.711 ± 0.026	0.236 ± 0.0037
FKGFLENIDSYT [AIM22 C-terminal 12 aa]	0.714 ± 0.021	0.706 ± 0.0014
FKLHNETRCRNR [VPS71 C-terminal 12 aa]	0.68 ± 0.017	0.677 ± 0.007
FKVASIANAQVR [ARC1 C-terminal 12 aa]	0.689 ± 0.0093	0.696 ± 0.027
FLFSCMLYKIDP [YML089C C-terminal 12 aa]	0.669 ± 0.027	0.664 ± 0.034
FLILVFVMKKNH [YDR018C C-terminal 12 aa]	0.287 ± 0.0071	0.269 ± 0.017

Sequence	protein stability index [1]	protein stability index (genetic background: wild type)
FLKNFTNDTFDN [BCH1 C-terminal 12 aa]	0.7055 ± 0.0035	0.7462 ± 0.0044
FPEKNIVNLKSA [CHA1 C-terminal 12 aa]	0.6971 ± 0.0067	0.1495 ± 0.0011
FPVTLWSKVILK [YHR073W-A C-terminal 12 aa]	0.569 ± 0.0092	0.559 ± 0.026
FRHNRSNKKLGC [GEX1 C-terminal 12 aa]	0.725 ± 0.025	0.7365 ± 0.0018
FRPDEMNIVTKF [PRM15 C-terminal 12 aa]	0.68 ± 0.022	0.753 ± 0.024
FRTDEVYAAWRD [KAE1 C-terminal 12 aa]	0.6891 ± 0.0051	0.6814 ± 0.0024
FSIRSISKFIFT [YOR325W C-terminal 12 aa]	0.649 ± 0.014	0.665 ± 0.051
FSNLLWFDQNFA [STB4 C-terminal 12 aa]	0.742 ± 0.014	0.786 ± 0.079
FSTEYLGLICTY [YLR232W C-terminal 12 aa]	0.49388 ± 0.0004	0.5496 ± 0.0009
FTMSLAHCLMFS [YJL169W C-terminal 12 aa]	0.636 ± 0.016	0.668 ± 0.066
FVAYTTLTFKKT [YMR001C-A C-terminal 12 aa]	0.6649 ± 0.0001	0.67 ± 0.037
FVEGGDGKYVLN [YPL113C C-terminal 12 aa]	0.688 ± 0.016	0.676 ± 0.014
FVKDEIHKDILD [PEX21 C-terminal 12 aa]	0.7 ± 0.017	0.685 ± 0.011
FVKVIDYTSNGW [PBY1 C-terminal 12 aa]	0.676 ± 0.0086	0.685 ± 0.015
FVLSISFRQEQT [YER172C-A C-terminal 12 aa]	0.577 ± 0.042	0.591 ± 0.025
FYSLCEKGGYLK [BPT1 C-terminal 12 aa]	0.679 ± 0.014	0.66733 ± 0.00062
FYSVFALMVIFV [YIP1 C-terminal 12 aa]	0.178 ± 0.013	0.122 ± 0.003
GAAVGGALAFLI [DDR2 C-terminal 12 aa]	0.702 ± 0.02	0.677 ± 0.0076
GAIMGAAAFALL [TOS6 C-terminal 12 aa]	0.699 ± 0.013	0.729 ± 0.053
